# Reference: patent publication US20140112930A1 (published 2014)
# T1: Monomeric hAng-2FD (human, UniProt O15123 282-496)
# T1 construct: also called fibrinogen-like domain of human Ang2; Human Ang-2FD
# T1 sequence: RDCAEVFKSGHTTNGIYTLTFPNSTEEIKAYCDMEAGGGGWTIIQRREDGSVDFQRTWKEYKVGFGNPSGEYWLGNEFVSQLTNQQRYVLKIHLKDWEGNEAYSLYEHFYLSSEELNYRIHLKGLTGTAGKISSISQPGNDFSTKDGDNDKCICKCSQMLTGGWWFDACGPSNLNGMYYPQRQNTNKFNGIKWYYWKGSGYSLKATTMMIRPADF
# T2: wild-type human Ang-2 (hAng-2-WT) (human, UniProt O15123 19-496)
# T2 construct: called full-length wild-type; also called Full-length wild-type human Ang-2
# T2 sequence: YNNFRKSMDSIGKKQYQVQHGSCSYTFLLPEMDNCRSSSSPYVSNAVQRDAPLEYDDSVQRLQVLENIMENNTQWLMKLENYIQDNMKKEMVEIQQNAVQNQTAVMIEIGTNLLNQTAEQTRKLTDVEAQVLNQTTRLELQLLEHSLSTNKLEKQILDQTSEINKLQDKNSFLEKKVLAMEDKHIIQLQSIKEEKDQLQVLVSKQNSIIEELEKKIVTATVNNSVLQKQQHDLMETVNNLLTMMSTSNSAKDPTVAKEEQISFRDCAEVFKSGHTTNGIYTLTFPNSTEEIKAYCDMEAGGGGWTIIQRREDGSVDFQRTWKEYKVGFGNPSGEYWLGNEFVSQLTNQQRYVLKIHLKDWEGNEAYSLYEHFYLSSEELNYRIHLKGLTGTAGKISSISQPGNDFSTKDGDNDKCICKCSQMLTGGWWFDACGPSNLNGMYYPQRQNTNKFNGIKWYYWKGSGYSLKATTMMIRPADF
# Legend:
# Human Ang-2FD-hFc = biological target: T3, Human Ang-2FD-hFc (human); experiment: blocking ELISA, 16.67 nM antibody, Ang-2FD-hFc to coated hTie-2-mFc
# T3 construct: also called dimeric human Ang-2FD; human Ang-2FD protein conjugated to human IgG
# Protocol: (§1) The plate was then blocked with PBS (Irvine Scientific, Santa Ana, Calif.) containing 0.5% BSA (Sigma-Aldrich Corp., St. Louis, Mo.) for one hour at room temperature. […] Human, mouse or monkey Ang-2FD protein conjugated to human IgG (Ang-2FD-hFc) were added to final concentrations of 2 nM, 8 nM, or 2 nM respectively and incubated for one hour at room temperature. The antibody/Ang-2FD-Fc mixture was then added to the plate containing hTie-2-mFc and incubated for one hour at room temperature. Detection of Ang-2FD-hFc bound to hTie-2-mFc protein was determined with Horse-Radish Peroxidase (HRP) conjugated to a-human IgG antibody (Jackson Immuno Research Lab, West Grove, Pa.) and developed by standard colorimetric response using tetramethylbenzidine (TMB) substrate (BD Biosciences, San Jose, Calif.). Absorbance was read at OD₄₅₀ for 0.1 sec.
# Mouse Ang-2FD-hFc = biological target: T4, Mouse Ang-2FD-hFc (mouse (Mus musculus)); experiment: as above
# T4 construct: also called dimeric mouse Ang-2FD
# Protocol: as §1
# Monomeric hAng-2FD = biological target: T1, Monomeric hAng-2FD; experiment: SPR, captured Ab
# [1] = biological target: T2, wild-type human Ang-2 (hAng-2-WT); experiment: SPR, captured Ab
# [2] = biological target: T5, Dimeric Human Ang-2FD conjugated to human IgG1 (human); experiment: SPR, captured Ab, RT
# T5 construct: also called Human Ang-2FD-hFc; hAng-2FD-hFc
# Protocol: (§2) Antibody was captured on a goat anti-mouse IgG polyclonal antibody surface, a goat anti-human κ polyclonal antibody (Southern Biotech, Birmingham, Ala.) surface or a goat anti-human IgG polyclonal antibody (Jackson Immuno Research Lab, West Grove, Pa.) surface created through direct amine coupling to a BIACORE™ CM5 sensor chip to form a captured antibody surface. […] Antigen-antibody binding and dissociation were monitored in real time at room temperature. Kinetic analysis was performed to calculate KD and half-life of antigen/antibody complex dissociation.
# [3] = biological target: T6, Dimeric Mouse Ang-2FD conjugated to human IgG1 (mouse (Mus musculus); human); experiment: SPR, captured Ab, RT
# T6 construct: also called Mouse Ang-2FD-hFc
# Protocol: as §2
# [4] = biological target: T7, Dimeric Monkey Ang-2FD conjugated to human IgG1 (monkey (Macca fascicularis); human); experiment: SPR, captured Ab, RT
# T7 construct: also called Monkey Ang-2FD-hFc
# Protocol: as §2
# [5] = biological target: T5, Dimeric Human Ang-2FD conjugated to …; experiment: competition ELISA, 16.67 nM Ab, coated hTie-2-mFc
# Protocol: as §1
# [6] = biological target: T6, Dimeric Mouse Ang-2FD conjugated to …; experiment: competition ELISA, 16.67 nM Ab, coated hTie-2-mFc
# Protocol: as §1
# [7] = biological target: T7, Dimeric Monkey Ang-2FD conjugated to …; experiment: competition ELISA, 16.67 nM Ab, coated hTie-2-mFc
# Protocol: as §1
# Biotin-hBA2 = biological target: T8, Biotin-hBA2 (human, biotinylated (sites not given)); experiment: blocking ELISA, biotin-hBA2 to hTie-2-His, mean of two experiments
# T8 construct: hBA2 consists of two dimers; also called biotinylated hBA2; human bow-Ang2
# Protocol: as §1
# For this experiment, human Tie-2 conjugated to a histidine tag (hTie-2-His; SEQ ID NO:526) was used in a similar fashion to the hTie-2-mFc described above. Antibody concentrations from 5 nM were serially diluted three-fold. […] An average IC₅₀ value for each antibody was calculated based on two separate experiments.
Binder,Percent Blocking of Ang-2FD Binding to Tie-2 (Human Ang-2FD-hFc),Percent Blocking of Ang-2FD Binding to Tie-2 (Mouse Ang-2FD-hFc),Kd (Monomeric hAng-2FD),T1/2 (Monomeric hAng-2FD),Kd [1],T1/2 [1],Kd [2],T1/2 [2],Kd [3],T1/2 [3],Kd [4],T1/2 [4],Percent Blocking of Ang-2FD Binding to Tie-2 [5],Percent Blocking of Ang-2FD Binding to Tie-2 [6],Percent Blocking of Ang-2FD Binding to Tie-2 [7],IC50 (Biotin-hBA2)
"H1H707P (antibody, human IgG1, V domains shown, Human IgG1) VH: QVQLVESGGGVVQPGRSLRLSCAASGFTFSSYGMHWVRQAPDKGLEWVAVKWDDGSNKYYADSVKGRFTISRDNSKNTLYLQMNSLRAEDTAVYYCAREGPYDFYSGYGAFDIWGQGTMVTVSS VL: not shown",95.1%,93.8%,,,,,,,,,,,,,,
"H1M728N (antibody, V domains shown) VH: EVQLVESGGDLVQPGGSLRLSCTASGFTFSKYWMTWVRQAPGRGLEWVANIKEDGNEKYFLDSVKGRFTISRDNAKDLLFLQMNSLRGEDTAVYYCVRDRGIEVAGPFDYWGQGTLVTVSS VL: DIQMTQSPSTLSASVGDRVTVTCRASQTIINWLAWYQQKPGKAPKLLISKASSLESGVPSRFSGSGSGTEFTLTISSLQPDDFATYYCQQYNRYWTFGQGTMVEIK [H1M728N, listing 1 of 2 here]",,,1.17 nM,33.9 min,0.0338 nM,725 min,0.137 nM,58.4 min,5.65 nM,9.9 min,1.58 nM,69.5 min,98.5%,83.9%,97.1%,
"H1M728N (antibody, V domains shown) VH: EVQLVESGGDLVQPGGSLRLSCTASGFTFSKYWMTWVRQAPGRGLEWVANIKEDGNEKYFLDSVKGRFTISRDNAKDLLFLQMNSLRGEDTAVYYCVRDRGIEVAGPFDYWGQGTLVTVSS VL: DIQMTQSPSTLSASVGDRVTVTCRASQTIINWLAWYQQKPGKAPKLLISKASSLESGVPSRFSGSGSGTEFTLTISSLQPDDFATYYCQQYNRYWTFGQGTMVEIK [H1M728N, listing 2 of 2 here]",,,,,,,,,,,,,,,,0.014 nM
"H1M724N (antibody, V domains shown) VH: QVQLVESGGGVVQPGRSLRLSCAASGFTLSNYGMHWVRQAPGKGLEWVAVIWHDGSNTYYADSVKGRFTISRDNSKNTLYLQMNSLRAEDTAVYYCTREGLDFWSGYYPNWFDPWGQGTLVTVSS VL: DIQMTQSPSSLSASVGDRVTITCRASQGIRNDLGWYQQKPGKAPKRLIYAASNLQGGVPSRFSGSGSGTEFTLTISSLQPEDFAAYYCLQHNIYPLTFGGGTKVEIK",,,,,,,,,,,,,,,,0.00972 nM

# Second part, the binder after the results:
Percent Blocking of Ang-2FD Binding to Tie-2 (Human Ang-2FD-hFc),Percent Blocking of Ang-2FD Binding to Tie-2 (Mouse Ang-2FD-hFc),Kd (Monomeric hAng-2FD),T1/2 (Monomeric hAng-2FD),Kd [1],T1/2 [1],Kd [2],T1/2 [2],Kd [3],T1/2 [3],Kd [4],T1/2 [4],Percent Blocking of Ang-2FD Binding to Tie-2 [5],Percent Blocking of Ang-2FD Binding to Tie-2 [6],Percent Blocking of Ang-2FD Binding to Tie-2 [7],IC50 (Biotin-hBA2),Binder
,,,,,,,,,,,,,,,0.0146 nM,"H2M730N (antibody, V domains shown) VH: EVQLVESGGGLVQPGGSLRLSCAASGFAFRSYWMTWVRQAPGKGLEWVANIQQDGNDKYYVDSVKGRFTISRDNAKNSLYLQMNSLRAEDTAVYYCARDTGIAEAGPFDYWGQGTLVTVSS VL: DIQMTQSPSTLSASVGDRVSITCRASQTIISWLAWYQQKPGKAPRLLIYKASSLESGVPSRFSGSGSGTEFTLTINSLQPDDFATYYCQQYNRYWTFGQGTKVEIK"
,,0.399 nM,157 min,0.0143 nM,2370 min,0.154 nM,167 min,0.882 nM,195 min,0.234 nM,169 min,99.6%,98.4%,95.1%,,"H2M743N (antibody, V domains shown) VH: EVQLLESGGGLVQPGGSLRLSCAASGFTFRKYAMSWVRQAPGKGLEWVSVISVSGGNTYYADSVKGRFTISRDNSKNTLYLQLNSLRAEDTAVYYCAKDLTDIVLMVYVDYWGQGTLVTVSS VL: DIQMTQSPSSVSASVGDRVTITCRASQDIDRWLAWYQQKPGKAPKLLIYAASSLQSGVPSRFSGSGSGTDFTLTISTLQPEDFATYYCQQANSLPFTFGGGTKVEIK"
,,4.81 nM,18 min,0.0679 nM,437 min,0.295 nM,38 min,0.61 nM,30.8 min,6.17 nM,28.5 min,99.6%,98.6%,94.1%,,"H2M742N (antibody, V domains shown) VH: DVQLLESGGDLVQPGGSLRLSCEASGFTFRNYVMIWVRQAPGKGLEWVSGISNSGGTTHYTDSVKGRFTISRDNSKNTLYLQINSLRAEDTAVYYCAKGYLDTSLIEGNWFDPWGQGTLVTVSS VL: NIVMTQSPLSLPVTPGEPASISCRSSQSLLHSNGFNYLNWFLQKPGQSPQLLIYLGSNRASGVPDKFSGSGSGTDFTLNINRVEAEDVGIYFCMQTLQTPLTFGGGTKVEIK"
,,6.13 nM,18.7 min,0.131 nM,333 min,0.484 nM,35.5 min,1.7 nM,21.4 min,7.33 nM,24.1 min,97.7%,90.9%,95.8%,,"H1M732N (antibody, V domains shown) VH: EVQLVESGGGLVRPGGSLRLSCAASGFTFTNAWMSWVRQAPGKGLEWIGQIKSKTDGGTIDYAAPVKGRFTVSRDDSENTLFLQMNSLKTEDTAVYYCAGNWNYVDFDYWGQGTLVTVSS VL: DIQMTQSPSSLSASVGDRVTITCRASQDIRNDLGWYQQKPGKAPKRLIYAASSLQGGVPSRFSGSGSGTEFTLTISSLQPEDFATYYCLQHNSYPFTFGPGTKVDIK"
,,1.38 nM,27.9 min,0.049 nM,479 min,0.165 nM,42.9 min,0.529 nM,25.5 min,1.5 nM,40.9 min,99.5%,97.3%,97.4%,,"H2M749N (antibody, V domains shown, also called H1M749N; H1M749) VH: QVQLVESGGGVVQPGRSLRLSCAASGFTFSSYGMHWVRQAPGKGLEWVAVIWYDEFNKYYADSVKGRFTISRDNSKNTLYLQMNSLRAEDTAVYYCARERESGYSYGFDYWGQGTLVTVSS VL: EIVMTQSPATLSVSPGERATLSCRAGQSVSSNLAWYQQKPGQAPRLLIYGASTRATGIPARFSGSGSGTEFTLTISSLQSEDFAVYYCQQYNNWWTFGQGTKVEIK"
,,0.475 nM,89.3 min,0.0289 nM,846 min,0.0989 nM,109 min,0.143 nM,223 min,0.5 nM,282 min,99.5%,98.4%,95.5%,,"H2M744N (antibody, V domains shown) VH: QVQLVQSGVEVKKPGASVKVSCKTSGYTFSNNGFSWVRQAPGQGLEWLGWISGYNGNTNYAQKFQGRVTMTTDTSTSTAYMELRTLRSDDTAVYYCARDQDYSNFHWLDPWGQGTLVTVAS VL: DIQMTQSPSSVSASVGDRVIITCRASQGLSSWLAWYQQKPGTAPKLLIHSASSLQTGVPSRFSGSGSGTEFALTINSLQPEDFGTYYCQQANSFPLTFGGGTRVEIK"
